Experimental data taken from paper PMC9278655.

Legend:
mKate2 = experiment: SEC; HPLC (LC-20A), Superdex 200 10/300 GL; 200 uL of fluorescent protein loaded at 10 uM; 0.5 mL/min; 50 mM PBS pH 7
Crimson = experiment: as above

Substance	stoichiometry N (mKate2)	stoichiometry N (Crimson)
mKate2	2	–
Crimson	–	2
